{"source": "paper PMC10781284", "about": "“Fluorescence Super-Resolution Imaging Chip for Gene Silencing Exosomes”", "biological_target": "PD-L1 (on HeLa exosomes) (human, UniProt Q9NZQ7 19-290)", "sequence (Q9NZQ7 19-290)": "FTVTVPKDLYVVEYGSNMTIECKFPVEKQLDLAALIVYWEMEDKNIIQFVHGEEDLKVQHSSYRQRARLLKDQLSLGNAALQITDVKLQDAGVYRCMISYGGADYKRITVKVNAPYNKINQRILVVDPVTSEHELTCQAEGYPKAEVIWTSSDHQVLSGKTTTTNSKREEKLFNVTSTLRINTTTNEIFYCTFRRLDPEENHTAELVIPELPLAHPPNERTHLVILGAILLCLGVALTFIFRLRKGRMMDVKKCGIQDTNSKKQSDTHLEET", "experiment": "fluorescence colocalization on captured exosomes (AF647/PKH26); 1 nM aptamer; exosomes captured by CD63 aptamer; microfluidic channel, PBS (10 mM, pH 7.4) washes, 2% BSA block at room temperature; exosomes in culture medium; binding buffer of the aptamer not stated", "settings": "protein: native; label: 5' Alexa Fluor 647", "data": [{"binder": "TACAGGTTCTGGGGGGTGGGTGGGGAACCTGTT (ssDNA)", "note": "[PD-L1 aptamer (PD-L1 adaptor strand)]", "values": [{"measurement": "binding result", "value": "binds"}]}]}
